One assay has as its target Drosophila cathepsin B (Drosophila).
Regarding “Drosophila melanogaster crammer, wild type (natural protein)”, the CTSB activity % (residual activity on ZFR-AMC with 3 µM crammer variant, 75 nM CTSB, pH 5.0, 20°C) was 14.7%.

The substance crammer F16A (natural protein) came in with a CTSB activity % (residual activity on ZFR-AMC with 3 µM crammer variant, 75 nM CTSB, pH 5.0, 20°C) of 34.6%.

In turn, crammer W53A (natural protein) gave a CTSB activity % (residual activity on ZFR-AMC with 3 µM crammer variant, 75 nM CTSB, pH 5.0, 20°C) of 85.2%.

Substance crammer Y32A (natural protein) gave a CTSB activity % (residual activity on ZFR-AMC with 3 µM crammer variant, 75 nM CTSB, pH 5.0, 20°C) of 67.6%.

crammer Y12A (natural protein) came in with a CTSB activity % (residual activity on ZFR-AMC with 3 µM crammer variant, 75 nM CTSB, pH 5.0, 20°C) of 63%.

Substance crammer F46A (natural protein) returned a CTSB activity % (residual activity on ZFR-AMC with 3 µM crammer variant, 75 nM CTSB, pH 5.0, 20°C) of 41%.

In turn, crammer Y20A (natural protein) had a CTSB activity % (residual activity on ZFR-AMC with 3 µM crammer variant, 75 nM CTSB, pH 5.0, 20°C) of 47.8%.

crammer W9A (natural protein) showed a CTSB activity % (residual activity on ZFR-AMC with 3 µM crammer variant, 75 nM CTSB, pH 5.0, 20°C) of 87.8%.

For a further assay the target is unchanged. This is another data set of the same source.
For the substance crammer E67A (natural protein), the CTSB activity % (residual activity on ZFR-AMC with 3 µM crammer variant, 75 nM CTSB, pH 5.0, 20°C) came out at 54.1%.

For crammer K36A (natural protein), the CTSB activity % (residual activity on ZFR-AMC with 3 µM crammer variant, 75 nM CTSB, pH 5.0, 20°C) is 29%.

For the substance crammer E8A (natural protein), the CTSB activity % (residual activity on ZFR-AMC with 3 µM crammer variant, 75 nM CTSB, pH 5.0, 20°C) turned out to be 77.7%.

In turn, crammer E24A (natural protein) returned a CTSB activity % (residual activity on ZFR-AMC with 3 µM crammer variant, 75 nM CTSB, pH 5.0, 20°C) of 19%.

crammer R29A (natural protein) registered a CTSB activity % (residual activity on ZFR-AMC with 3 µM crammer variant, 75 nM CTSB, pH 5.0, 20°C) of 64%.

Take crammer R28A (natural protein): the CTSB activity % (residual activity on ZFR-AMC with 3 µM crammer variant, 75 nM CTSB, pH 5.0, 20°C) was 89%.

crammer D6A (natural protein) displayed a CTSB activity % (residual activity on ZFR-AMC with 3 µM crammer variant, 75 nM CTSB, pH 5.0, 20°C) of 21.1%.

A further assay has the same target. This is another data set of the same source.
Consider crammer F16A (natural protein), for which the reduction of CTSB activity at 3 µM crammer variant (text's number; differs from 100 minus the table's cell) is 64%.

The values above are taken from paper PMC3551606.
